± gives the uncertainty stated by the source.
Test: amyloid nucleation score (Sup35N fusion, yeast selection) (log enrichment); library NNK3; higher = more nucleation; inactive = no reads after selection
Procedure, shortened: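 Peptides of 20 random codons fused to Sup35N were expressed in psi-negative yeast, induced 24 hours with 100 μM copper sulfate, then grown 7 days at 30°C on medium lacking adenine and uracil. Input and output plasmid inserts were Illumina-sequenced. Nucleation score is the DiMSum log enrichment of output over input reads, centred on the mode score of non-aggregating sequences, excluding sequences with under 100 input reads. Random libraries had three technical output replicates.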
SLDCARNFRFGQTVFCCVGY showed an amyloid nucleation score of 1.21 ± 0.18.
In the case of SLDFSSGDVKNLKCCNVLMK, the amyloid nucleation score is reported as “inactive”.
For SLDLALNMFFFLYAGSNFFF, the amyloid nucleation score was “inactive”.
In the case of SLEIEK, the amyloid nucleation score is reported as “inactive”.
With SLGLKIVVLESYGVSPVCCH the amyloid nucleation score was “inactive”.
With SLGSCFSTCAVVHQRMKLGG the amyloid nucleation score was “inactive”.
Substance SLGTIMFVCGGPRGHLCSVR has an amyloid nucleation score of -0.414 ± 1.4.
In the case of SLIGNSDSPWFLRQTCTYTK, the amyloid nucleation score is reported as “inactive”.
In the case of SLKLRCLLGTSKVVMVDLFV, the amyloid nucleation score is reported as “inactive”.
For SLLCNHFPGHI, the amyloid nucleation score was “inactive”.
In the case of SLLGSRNRRSGWTQFVKLVW, the amyloid nucleation score is reported as “inactive”.
SLLMYCRNTVSMSNNLSRHR gave an amyloid nucleation score of 1.39 ± 0.11.
In the case of SLLSIFVKGARLQISDVSQG, the amyloid nucleation score is reported as 0.773 ± 0.18.
For SLMDNVLSFHFVVANWNTLD, the amyloid nucleation score was “inactive”.
In the case of SLMSSRSCVTRTLLARQVYL, the amyloid nucleation score is reported as “inactive”.
In the case of SLNCDGSSDGRCAAYQIWLC, the amyloid nucleation score is reported as “inactive”.
For SLNLEENLSFHGVCRMYFNE, the amyloid nucleation score was “inactive”.
For SLNLWGLRSKVPDVWRMLMR, the amyloid nucleation score was “inactive”.
SLPACKSGVKNTYVLYLTWN gave an amyloid nucleation score of 1.19 ± 0.11.
With SLPGSKYKAFH the amyloid nucleation score was “inactive”.
With SLRDVVV the amyloid nucleation score was “inactive”.
With SLRYGREIKNMRQNCIDPWC the amyloid nucleation score was “inactive”.
For SLSSWLWVVLIVHCMSGRNS, the amyloid nucleation score was “inactive”.
Work on SLTGLVILMAYRDPPGLAQF yielded an amyloid nucleation score of 1.46 ± 0.13.
In the case of SLTYGRRWLFDWRSTMKGKA, the amyloid nucleation score is reported as “inactive”.
Work on SLWIIERCILDHQYGSFRRQ yielded an amyloid nucleation score of 1.65 ± 0.1.
In the case of SLYHSLSGYHFCISMLL, the amyloid nucleation score is reported as “inactive”.
With SLYRSEVMVHAVVVYVYFGK the amyloid nucleation score was “inactive”.
For SLYWSAMRKYNVVRTIYSRW, the amyloid nucleation score was “inactive”.
With SMCDMYYLVACTPHMIVQLY the amyloid nucleation score was -0.111 ± 0.69.
SMDTE gave an amyloid nucleation score of 0.734 ± 0.17.
With SMFNGNLSRSMWFWRVRVTP the amyloid nucleation score was “inactive”.
With SMGTFNMVRLSGTWGMSAMY the amyloid nucleation score was 0.757 ± 0.15.
With SMSGWCVETFLRQEM the amyloid nucleation score was “inactive”.
For SMSIYPVCLTF, the amyloid nucleation score was “inactive”.
For SMSSTSYIGSSLVMIARNKF, the amyloid nucleation score was “inactive”.
For SMSWRSHEAMCTGSYFNLCD, the amyloid nucleation score was “inactive”.
Substance SMYIIMVCSSVSCWYFNRGH has an amyloid nucleation score of 0.94 ± 0.18.
SNACCGWAICCSPCGGKGVS showed an amyloid nucleation score of 1.45 ± 0.13.
SNAKWGNISVGSRDYRTIRS showed an amyloid nucleation score of 1.48 ± 0.083.
With SNANKCGRMFEMKYRHNLCL the amyloid nucleation score was “inactive”.
For SNCNPEWQLLIMIDCYNYAL, the amyloid nucleation score was “inactive”.
With SNCTLRE the amyloid nucleation score was “inactive”.
For SNDVKNVHP, the amyloid nucleation score was “inactive”.
In the case of SNFINVGSRLMTSWRGYAYM, the amyloid nucleation score is reported as “inactive”.
For SNGCKMYDKHVLYW, the amyloid nucleation score was “inactive”.
With SNIVFVPRSLQRREDGRRMD the amyloid nucleation score was “inactive”.
SNLRMRKNGVVDDIWPDERL gave an amyloid nucleation score of -0.802 ± 1.3.
For SNLVDGMSWHHFKERIVMLD, the amyloid nucleation score was “inactive”.
In the case of SNRGYTKRYF, the amyloid nucleation score is reported as “inactive”.
For SNSHWIYWYTNPGQHRPSHR, the amyloid nucleation score was “inactive”.
For SNSSYWRICRLETCNPVGYK, the amyloid nucleation score was “inactive”.
With SNVSVHGMIESMLWLSTRDI the amyloid nucleation score was “inactive”.
For SNWECLGGHENGINCRDI, the amyloid nucleation score was “inactive”.
For SNYSV, the amyloid nucleation score was “inactive”.
For SPALQMWKACTWLNRTLSPV, the amyloid nucleation score was 0.582 ± 0.15.
In the case of SPDTVPIGGSSGTNVYLCMH, the amyloid nucleation score is reported as “inactive”.
For SPEPSVNRKHLVPLLPAAFE, the amyloid nucleation score was “inactive”.
In the case of SPFFYFFWPGFR, the amyloid nucleation score is reported as “inactive”.
In the case of SPKAVSCNTFPIGYRISFFL, the amyloid nucleation score is reported as “inactive”.
With SPRAFTASVEGVSEL the amyloid nucleation score was “inactive”.
With SPRNMWI the amyloid nucleation score was “inactive”.
SPYNPHAFVTYSFCVYKD showed an amyloid nucleation score of 1.88 ± 0.098.
For SQKGCRH, the amyloid nucleation score was “inactive”.
With SQPDCFNICDLHGRSSCVSK the amyloid nucleation score was “inactive”.
With SQWWNVDPRSTQCASGAMRC the amyloid nucleation score was “inactive”.
For SRCNIFGRPSASIAR, the amyloid nucleation score was “inactive”.
For SRCNVYKKVVAYVLRRLTPE, the amyloid nucleation score was 0.166 ± 0.66.
For SRCWVYRKRTPCNVY, the amyloid nucleation score was “inactive”.
For SRFKMICSRDRLNNRSVVLG, the amyloid nucleation score was “inactive”.
Work on SRFRFMGNVRQFLQPYRRLH yielded an amyloid nucleation score of 0.347 ± 0.2.
In the case of SRFRGAI, the amyloid nucleation score is reported as “inactive”.
With SRFYTL the amyloid nucleation score was “inactive”.
For SRNVGFGINSQQGLFFRVVV, the amyloid nucleation score was “inactive”.
With SRNYLVSPIDAPEQQSCVEE the amyloid nucleation score was “inactive”.
With SRPLEMVLLLSWWIMSRKIP the amyloid nucleation score was “inactive”.
In the case of SRQPRCALVVDVPP, the amyloid nucleation score is reported as “inactive”.
For SRRFTLPGGSMFTEVLM, the amyloid nucleation score was “inactive”.
With SRRYFYIDIRYRNIKP the amyloid nucleation score was “inactive”.
For SRSIMSVLACHRMCERGPIW, the amyloid nucleation score was 0.827 ± 0.19.
With SRSINCFPMLILLVL the amyloid nucleation score was “inactive”.
With SRSLIRINWFRGKKLCYGFE the amyloid nucleation score was “inactive”.
With SRSLWTLNIVFRHDCYTGKL the amyloid nucleation score was -0.05 ± 0.57.
In the case of SRSNQNCLPSASMNVYLSVT, the amyloid nucleation score is reported as “inactive”.
With SRTYKHKALAQFPYKYWCVP the amyloid nucleation score was “inactive”.
In the case of SRVNFM, the amyloid nucleation score is reported as “inactive”.
With SSDNIVSGWWALSNKSATFV the amyloid nucleation score was “inactive”.
In the case of SSDTGRCIKVDALRCRMGSR, the amyloid nucleation score is reported as “inactive”.
For SSFLKQLLGSVVNSVNVATV, the amyloid nucleation score was “inactive”.
For SSFNIPMPSNYPKMIDLLFT, the amyloid nucleation score was “inactive”.
With SSGKFIVLGRNAWTLAWTLT the amyloid nucleation score was “inactive”.
SSGLFLSISLNDGWSRGVWS gave an amyloid nucleation score of 2.77 ± 0.076.
For SSGPIRLERMDYWHHWGATL, the amyloid nucleation score was “inactive”.
With SSGRSSPQWG the amyloid nucleation score was “inactive”.
In the case of SSGYAFTGKVFYC, the amyloid nucleation score is reported as “inactive”.
For SSIAMHCILIVFLKGLCVFR, the amyloid nucleation score was “inactive”.
For SSIDEIGSFV, the amyloid nucleation score was “inactive”.
For SSIGVGSFCSVRCLYDHDTS, the amyloid nucleation score was “inactive”.
With SSIHH the amyloid nucleation score was “inactive”.
For SSITRGLHVRKTSVSTLGV, the amyloid nucleation score was “inactive”.
With SSIWSGMSLFGFREIMSYVI the amyloid nucleation score was “inactive”.
For SSKLFL, the amyloid nucleation score was “inactive”.
In the case of SSKSWLRYRVDEHTVSTFGF, the amyloid nucleation score is reported as “inactive”.
With SSLCYTHRACTCNFTKVDSF the amyloid nucleation score was “inactive”.
SSLGSETRFSYKRVHIENWR showed an amyloid nucleation score of -0.97 ± 0.9.
In the case of SSLLANRYVWLDKLRHWHWR, the amyloid nucleation score is reported as “inactive”.
With SSMAVQRGGNYITMIYGH the amyloid nucleation score was “inactive”.
For SSPYDCSVNYLKNVSPRTLY, the amyloid nucleation score was “inactive”.
For SSQFTHEETGFCDVVPVVCG, the amyloid nucleation score was “inactive”.
In the case of SSRRYS, the amyloid nucleation score is reported as “inactive”.
In the case of SSRVVAWLSFNGSIICLFTF, the amyloid nucleation score is reported as “inactive”.
In the case of SSSSMFALLPICY, the amyloid nucleation score is reported as “inactive”.
In the case of SSSTANYLSIKFSLSLLKYN, the amyloid nucleation score is reported as 0.905 ± 0.14.
SSSVRMRCSCISLASNKCAY showed an amyloid nucleation score of 1.26 ± 0.12.
In the case of SSTCTDL, the amyloid nucleation score is reported as “inactive”.
In the case of SSTNSYTSSLVSVSLVGDGA, the amyloid nucleation score is reported as “inactive”.
In the case of SSTRIMNISVSRWSEMDKPD, the amyloid nucleation score is reported as “inactive”.
For SSVEHWPQNVFNRYFLYGVY, the amyloid nucleation score was “inactive”.
For SSVSFQLEVCNQNVLYGIKI, the amyloid nucleation score was “inactive”.
In the case of SSWPN, the amyloid nucleation score is reported as “inactive”.
For SSYAYMRVCAFKVVEMVYWR, the amyloid nucleation score was “inactive”.
With SSYFYHNVILPTHIYNFSVI the amyloid nucleation score was 2.27 ± 0.08.
For SSYLGECVKRPDPPRISKTL, the amyloid nucleation score was “inactive”.
With SSYSVVFEQ the amyloid nucleation score was “inactive”.
In the case of SSYVQFYLGWLGRYCNGSYV, the amyloid nucleation score is reported as “inactive”.
STAWALAIAAVDRNFDSGWW gave an amyloid nucleation score of 0.009 ± 1.1.
STGRRPTWATQRLWLWRQQL gave an amyloid nucleation score of -0.091 ± 0.87.
In the case of STKPFSYYCLRYHRTVTALL, the amyloid nucleation score is reported as “inactive”.
For STLNGGSWVMIYAEDLTS, the amyloid nucleation score was “inactive”.
For STMHELYV, the amyloid nucleation score was “inactive”.
For STNPPNRL, the amyloid nucleation score was “inactive”.
With STRFMVIFDGISSVIGAIYG the amyloid nucleation score was “inactive”.
In the case of STVKVSLYQNQYPNGFNS, the amyloid nucleation score is reported as 1.66 ± 0.089.
In the case of STVTDTYRLDTWTTWETDRG, the amyloid nucleation score is reported as 1.98 ± 0.095.
Work on STYLGDVSLSFVRVWSVNGS yielded an amyloid nucleation score of 1.29 ± 0.078.
For SVARNSHYATLHKELQHVMY, the amyloid nucleation score was “inactive”.
In the case of SVDFVIPGSVKSVRFVVELV, the amyloid nucleation score is reported as “inactive”.
For SVDVYRSCEVGKCGGSYSTF, the amyloid nucleation score was “inactive”.
With SVGFVHFVNTGDQKYERRVD the amyloid nucleation score was “inactive”.
Substance SVIVKAKASTVGDMQAKCRI has an amyloid nucleation score of 1.1 ± 0.15.
In the case of SVKLKLGLCFPLYVSGFGLL, the amyloid nucleation score is reported as “inactive”.
In the case of SVLHMWNLRVVLHECYVYHI, the amyloid nucleation score is reported as “inactive”.
For SVLIFTMKDFLGEIFINVPT, the amyloid nucleation score was 1.89 ± 0.092.
With SVLRYE the amyloid nucleation score was “inactive”.
For SVLSLLLCYRCSRL, the amyloid nucleation score was -0.081 ± 0.98.
In the case of SVLSVV, the amyloid nucleation score is reported as “inactive”.
In the case of SVLVIFVLLSIGSAVKLNYG, the amyloid nucleation score is reported as “inactive”.
In the case of SVNFELYDMITRC, the amyloid nucleation score is reported as “inactive”.
For SVNIMRSLIWH, the amyloid nucleation score was “inactive”.
With SVRLTIEMVTAVFRWGESMR the amyloid nucleation score was 0.233 ± 0.32.
For SVSPCSTHFLMSFERYVRGT, the amyloid nucleation score was “inactive”.
In the case of SVSSLRYY, the amyloid nucleation score is reported as “inactive”.
With SVSSRHSAW the amyloid nucleation score was “inactive”.
In the case of SVSSYAICVEACNYFRSRLV, the amyloid nucleation score is reported as “inactive”.
For SVVEPRRTGTWNSTGVRSQH, the amyloid nucleation score was “inactive”.
In the case of SVVFLLRIAWYWGLWIVLLL, the amyloid nucleation score is reported as “inactive”.
In the case of SVWESHVWHAHTQI, the amyloid nucleation score is reported as “inactive”.
